Measurements from patent US10500249B2, “Compositions and methods for preventing or treating diseases, conditions, or processes characterized by aberrant fibroblast proliferation and extracellular matrix deposition” (MOERAE MATRIX, INC., priority 2014, dated 2019).

Key:
Test in all cases: Kinase Profiling Assay
Format in all cases: biochemical
Settings in all cases: 100 μM
EphA7 (h) = EphA7 (h) (Homo sapiens, UniProt Q15375)
Method in brief: (§1)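 Duplicate wells; [radiolabeled] ATP phosphate onto cationic substrate; filter capture (negatively charged membrane); scintillation count; % of 100% activity control. Selectivity screen of MK2 peptide inhibitors, 266 human kinases.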

ErbB4 (h) = ErbB4 (h) (Homo sapiens, UniProt Q15303)
Method in brief: as §1

FGFR1(V561M) (h) = FGFR1(V561M) (h) (Homo sapiens, UniProt P11362, V561M)
Method in brief: as §1

FGFR4 (h) = FGFR4 (h) (Homo sapiens, UniProt P22455)
Method in brief: as §1

LIMK1 (h) = LIMK1 (h) (Homo sapiens, UniProt P53667)
Method in brief: as §1

Lck (h) activated = Lck (h) activated (Homo sapiens, UniProt P06239)
Method in brief: as §1

Met(Y1248C) (h) = Met(Y1248C) (h) (Homo sapiens, UniProt P08581, Y1230C)
Method in brief: as §1

Mnk2 (h) = molecular target: T1, Mnk2 (h) (Homo sapiens, UniProt Q9HBH9)
T1 construct: purchased Millipore
Method in brief: as §1

Ros (h) = Ros (h) (Homo sapiens, UniProt P08922)
Method in brief: as §1

Rsk4 (h) = Rsk4 (h) (Homo sapiens, UniProt Q9UK32)
Method in brief: as §1

SGK3 (h) = molecular target: T2, SGK3 (h) (Homo sapiens, UniProt Q96BR1)
T2 sequence (Q96BR1 1-496): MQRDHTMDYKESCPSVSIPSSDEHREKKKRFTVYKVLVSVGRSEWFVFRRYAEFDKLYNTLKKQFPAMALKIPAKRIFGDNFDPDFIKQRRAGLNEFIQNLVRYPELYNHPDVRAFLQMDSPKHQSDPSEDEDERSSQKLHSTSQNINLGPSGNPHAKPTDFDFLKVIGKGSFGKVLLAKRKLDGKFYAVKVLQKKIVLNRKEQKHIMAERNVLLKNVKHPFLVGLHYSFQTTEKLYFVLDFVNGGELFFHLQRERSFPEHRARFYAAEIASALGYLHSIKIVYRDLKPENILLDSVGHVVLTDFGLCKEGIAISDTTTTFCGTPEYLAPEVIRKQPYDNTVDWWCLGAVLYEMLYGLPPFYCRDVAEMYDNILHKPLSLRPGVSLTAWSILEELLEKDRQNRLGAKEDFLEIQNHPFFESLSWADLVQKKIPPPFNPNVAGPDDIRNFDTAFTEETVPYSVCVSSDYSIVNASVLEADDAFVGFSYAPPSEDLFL
Method in brief: as §1

TAO3 (h) = molecular target: T3, TAO3 (h) (Homo sapiens, UniProt Q9H2K8)
T3 sequence (Q9H2K8 1-898): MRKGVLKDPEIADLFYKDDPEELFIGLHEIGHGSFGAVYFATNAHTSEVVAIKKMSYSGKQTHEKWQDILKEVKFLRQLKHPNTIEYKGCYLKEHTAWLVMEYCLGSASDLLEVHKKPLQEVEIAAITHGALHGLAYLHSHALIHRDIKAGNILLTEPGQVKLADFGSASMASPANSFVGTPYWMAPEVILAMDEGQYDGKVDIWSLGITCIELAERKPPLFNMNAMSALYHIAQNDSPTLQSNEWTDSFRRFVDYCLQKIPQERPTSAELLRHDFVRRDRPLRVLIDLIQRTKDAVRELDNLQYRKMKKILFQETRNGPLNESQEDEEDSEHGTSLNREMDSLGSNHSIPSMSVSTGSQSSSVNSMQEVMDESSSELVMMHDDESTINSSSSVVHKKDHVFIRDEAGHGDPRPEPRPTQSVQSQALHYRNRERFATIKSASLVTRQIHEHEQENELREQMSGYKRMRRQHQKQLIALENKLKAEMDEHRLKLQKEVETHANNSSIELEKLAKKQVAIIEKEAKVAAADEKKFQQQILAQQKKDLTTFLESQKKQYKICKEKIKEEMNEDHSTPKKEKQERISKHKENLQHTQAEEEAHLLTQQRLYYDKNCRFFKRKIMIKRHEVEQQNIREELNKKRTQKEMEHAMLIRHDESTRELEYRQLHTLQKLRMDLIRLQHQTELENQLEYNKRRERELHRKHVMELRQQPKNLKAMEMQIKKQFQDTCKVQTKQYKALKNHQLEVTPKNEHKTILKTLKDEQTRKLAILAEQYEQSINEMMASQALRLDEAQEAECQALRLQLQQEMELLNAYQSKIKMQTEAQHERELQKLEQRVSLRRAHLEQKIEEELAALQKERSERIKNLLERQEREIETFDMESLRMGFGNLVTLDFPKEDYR
Method in brief: as §1

ACK1 (h) = ACK1 (h) (Homo sapiens, UniProt Q07912)
Method in brief: as §1

FAK (h) = FAK (h) (Homo sapiens, UniProt Q05397)
Method in brief: as §1

LIMK1 (h), sequence (P53667 whole entry): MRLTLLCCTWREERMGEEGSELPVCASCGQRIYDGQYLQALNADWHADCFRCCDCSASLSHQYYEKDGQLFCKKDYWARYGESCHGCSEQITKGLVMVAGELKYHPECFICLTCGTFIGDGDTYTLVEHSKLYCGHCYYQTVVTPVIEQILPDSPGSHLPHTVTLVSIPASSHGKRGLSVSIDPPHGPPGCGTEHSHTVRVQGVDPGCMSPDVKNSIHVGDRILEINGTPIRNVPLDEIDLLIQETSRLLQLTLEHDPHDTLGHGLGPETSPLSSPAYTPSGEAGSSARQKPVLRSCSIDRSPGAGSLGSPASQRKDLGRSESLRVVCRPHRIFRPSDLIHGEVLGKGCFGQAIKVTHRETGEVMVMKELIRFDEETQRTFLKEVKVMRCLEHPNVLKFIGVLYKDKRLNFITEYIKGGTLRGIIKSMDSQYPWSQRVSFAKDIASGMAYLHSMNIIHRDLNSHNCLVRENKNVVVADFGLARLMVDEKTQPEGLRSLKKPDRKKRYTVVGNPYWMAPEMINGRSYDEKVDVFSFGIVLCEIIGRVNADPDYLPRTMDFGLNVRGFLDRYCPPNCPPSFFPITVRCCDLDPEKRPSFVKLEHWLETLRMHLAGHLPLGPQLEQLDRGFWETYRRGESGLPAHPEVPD
ACK1 (h), sequence (Q07912 whole entry): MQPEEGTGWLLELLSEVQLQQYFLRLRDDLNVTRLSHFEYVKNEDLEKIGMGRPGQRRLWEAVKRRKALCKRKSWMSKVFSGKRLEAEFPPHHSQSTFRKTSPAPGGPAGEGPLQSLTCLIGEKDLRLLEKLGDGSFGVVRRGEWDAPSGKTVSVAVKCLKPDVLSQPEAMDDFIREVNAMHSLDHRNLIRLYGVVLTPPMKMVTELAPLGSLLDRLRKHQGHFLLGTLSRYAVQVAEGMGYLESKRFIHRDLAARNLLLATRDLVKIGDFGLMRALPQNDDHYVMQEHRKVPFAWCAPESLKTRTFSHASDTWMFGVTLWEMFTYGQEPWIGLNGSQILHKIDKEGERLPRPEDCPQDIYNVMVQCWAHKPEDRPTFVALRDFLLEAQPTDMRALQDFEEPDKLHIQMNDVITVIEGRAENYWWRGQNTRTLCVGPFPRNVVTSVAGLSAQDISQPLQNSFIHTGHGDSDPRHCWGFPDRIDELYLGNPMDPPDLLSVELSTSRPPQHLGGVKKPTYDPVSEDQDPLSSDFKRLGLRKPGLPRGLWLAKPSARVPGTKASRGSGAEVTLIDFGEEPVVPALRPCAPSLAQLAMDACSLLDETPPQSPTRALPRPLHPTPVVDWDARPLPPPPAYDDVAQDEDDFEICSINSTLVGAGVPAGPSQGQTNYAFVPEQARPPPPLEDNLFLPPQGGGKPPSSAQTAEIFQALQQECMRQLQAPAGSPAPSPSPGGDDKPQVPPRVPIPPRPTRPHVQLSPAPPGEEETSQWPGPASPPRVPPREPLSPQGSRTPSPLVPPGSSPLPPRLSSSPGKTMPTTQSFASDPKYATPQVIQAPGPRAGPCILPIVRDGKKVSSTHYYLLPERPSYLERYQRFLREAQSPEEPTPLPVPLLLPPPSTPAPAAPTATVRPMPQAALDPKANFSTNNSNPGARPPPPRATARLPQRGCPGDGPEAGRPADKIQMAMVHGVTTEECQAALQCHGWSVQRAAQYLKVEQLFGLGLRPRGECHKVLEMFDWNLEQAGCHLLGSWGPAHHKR
Ros (h), sequence (P08922 28-2347): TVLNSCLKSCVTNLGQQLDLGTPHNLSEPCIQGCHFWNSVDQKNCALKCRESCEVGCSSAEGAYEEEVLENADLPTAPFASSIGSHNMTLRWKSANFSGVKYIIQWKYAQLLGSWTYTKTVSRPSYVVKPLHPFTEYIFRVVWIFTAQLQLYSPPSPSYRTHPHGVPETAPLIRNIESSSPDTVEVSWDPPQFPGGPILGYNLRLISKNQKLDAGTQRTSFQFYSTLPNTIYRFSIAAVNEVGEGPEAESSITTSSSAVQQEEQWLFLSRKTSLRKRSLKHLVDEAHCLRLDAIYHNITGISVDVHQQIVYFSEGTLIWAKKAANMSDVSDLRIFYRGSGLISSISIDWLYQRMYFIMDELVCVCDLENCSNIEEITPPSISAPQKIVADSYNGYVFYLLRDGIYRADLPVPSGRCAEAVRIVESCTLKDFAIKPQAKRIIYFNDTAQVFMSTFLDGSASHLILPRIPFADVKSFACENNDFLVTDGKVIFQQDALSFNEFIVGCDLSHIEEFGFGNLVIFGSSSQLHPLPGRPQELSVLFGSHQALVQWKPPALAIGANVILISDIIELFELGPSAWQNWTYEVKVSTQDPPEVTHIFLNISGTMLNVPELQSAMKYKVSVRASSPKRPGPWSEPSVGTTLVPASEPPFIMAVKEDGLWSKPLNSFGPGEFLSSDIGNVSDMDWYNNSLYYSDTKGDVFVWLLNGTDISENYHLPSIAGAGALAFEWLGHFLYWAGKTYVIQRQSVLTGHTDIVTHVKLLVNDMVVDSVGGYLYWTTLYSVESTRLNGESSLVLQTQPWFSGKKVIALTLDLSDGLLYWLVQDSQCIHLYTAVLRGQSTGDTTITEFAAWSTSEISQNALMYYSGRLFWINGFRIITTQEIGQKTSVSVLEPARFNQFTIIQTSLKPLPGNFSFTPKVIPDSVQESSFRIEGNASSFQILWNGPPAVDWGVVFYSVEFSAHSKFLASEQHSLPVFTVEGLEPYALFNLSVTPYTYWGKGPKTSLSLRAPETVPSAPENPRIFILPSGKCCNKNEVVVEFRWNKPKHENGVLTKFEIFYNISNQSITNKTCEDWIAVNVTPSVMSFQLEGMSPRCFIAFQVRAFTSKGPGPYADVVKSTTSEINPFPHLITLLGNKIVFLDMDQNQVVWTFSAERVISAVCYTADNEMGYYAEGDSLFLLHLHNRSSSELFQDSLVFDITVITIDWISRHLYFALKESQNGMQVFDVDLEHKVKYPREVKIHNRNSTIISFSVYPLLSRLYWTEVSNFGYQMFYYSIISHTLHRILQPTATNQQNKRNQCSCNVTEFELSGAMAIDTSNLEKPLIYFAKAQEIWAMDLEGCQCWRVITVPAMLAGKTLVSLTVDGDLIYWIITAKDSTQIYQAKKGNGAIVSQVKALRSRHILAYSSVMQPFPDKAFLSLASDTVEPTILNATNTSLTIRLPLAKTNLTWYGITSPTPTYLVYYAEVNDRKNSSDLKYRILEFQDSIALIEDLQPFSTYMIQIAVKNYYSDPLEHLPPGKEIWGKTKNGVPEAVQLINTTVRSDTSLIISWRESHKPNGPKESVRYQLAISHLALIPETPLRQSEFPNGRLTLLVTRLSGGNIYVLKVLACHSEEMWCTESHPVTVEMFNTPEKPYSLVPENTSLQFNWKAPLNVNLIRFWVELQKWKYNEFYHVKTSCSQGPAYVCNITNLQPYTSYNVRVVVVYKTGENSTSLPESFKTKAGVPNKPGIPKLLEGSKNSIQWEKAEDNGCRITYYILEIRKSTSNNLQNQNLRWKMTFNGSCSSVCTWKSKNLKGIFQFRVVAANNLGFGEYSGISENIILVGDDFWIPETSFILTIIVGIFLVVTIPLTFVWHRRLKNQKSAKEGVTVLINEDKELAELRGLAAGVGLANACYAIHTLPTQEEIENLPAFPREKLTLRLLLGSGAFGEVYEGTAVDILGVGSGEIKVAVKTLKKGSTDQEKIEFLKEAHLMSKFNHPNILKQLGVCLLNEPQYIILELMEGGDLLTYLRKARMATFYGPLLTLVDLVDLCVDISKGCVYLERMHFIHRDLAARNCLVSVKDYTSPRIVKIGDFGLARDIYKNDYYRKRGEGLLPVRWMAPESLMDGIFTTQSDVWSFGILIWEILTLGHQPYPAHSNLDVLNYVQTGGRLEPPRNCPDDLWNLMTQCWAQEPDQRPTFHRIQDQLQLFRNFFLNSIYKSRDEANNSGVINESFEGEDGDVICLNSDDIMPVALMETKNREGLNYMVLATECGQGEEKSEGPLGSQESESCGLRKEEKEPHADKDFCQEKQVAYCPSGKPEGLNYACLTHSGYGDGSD
EphA7 (h), sequence (Q15375 28-998): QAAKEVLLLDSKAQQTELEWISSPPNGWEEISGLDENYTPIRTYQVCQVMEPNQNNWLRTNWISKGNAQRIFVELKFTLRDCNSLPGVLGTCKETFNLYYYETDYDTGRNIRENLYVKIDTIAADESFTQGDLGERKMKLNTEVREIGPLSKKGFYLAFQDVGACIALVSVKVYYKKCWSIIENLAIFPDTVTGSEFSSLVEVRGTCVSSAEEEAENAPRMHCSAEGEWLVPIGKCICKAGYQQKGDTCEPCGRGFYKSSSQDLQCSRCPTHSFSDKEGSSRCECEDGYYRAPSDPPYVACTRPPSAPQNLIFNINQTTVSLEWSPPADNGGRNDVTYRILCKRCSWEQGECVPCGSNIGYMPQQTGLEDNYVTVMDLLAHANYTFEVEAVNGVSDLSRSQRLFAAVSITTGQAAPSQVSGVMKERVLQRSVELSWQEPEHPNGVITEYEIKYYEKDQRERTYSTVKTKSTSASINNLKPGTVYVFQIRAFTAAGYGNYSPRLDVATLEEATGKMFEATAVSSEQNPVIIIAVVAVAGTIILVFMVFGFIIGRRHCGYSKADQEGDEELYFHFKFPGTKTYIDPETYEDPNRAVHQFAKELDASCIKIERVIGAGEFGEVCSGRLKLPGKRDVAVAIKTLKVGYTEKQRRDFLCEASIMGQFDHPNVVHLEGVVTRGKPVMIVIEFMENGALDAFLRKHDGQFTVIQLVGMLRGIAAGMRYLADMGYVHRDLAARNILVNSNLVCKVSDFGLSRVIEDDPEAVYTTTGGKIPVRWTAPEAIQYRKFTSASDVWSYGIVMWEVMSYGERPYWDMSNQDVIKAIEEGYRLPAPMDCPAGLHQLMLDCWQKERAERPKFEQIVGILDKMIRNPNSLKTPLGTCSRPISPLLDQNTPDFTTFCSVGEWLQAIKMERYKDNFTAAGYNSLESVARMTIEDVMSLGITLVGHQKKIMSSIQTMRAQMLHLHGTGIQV

Row | Sequence | % activity (EphA7 (h)) [%] | % activity (ErbB4 (h)) [%] | % activity (FGFR1(V561M) (h)) [%] | % activity (FGFR4 (h)) [%] | % activity (LIMK1 (h)) [%] | % activity (Lck (h) activated) [%] | % activity (Met(Y1248C) (h)) [%] | % activity (Mnk2 (h)) [%] | % activity (Ros (h)) [%] | % activity (Rsk4 (h)) [%] | % activity (SGK3 (h)) [%] | % activity (TAO3 (h)) [%] | % activity (ACK1 (h)) [%] | % activity (FAK (h)) [%]
1 | FAKLAARLYRKALARQLGVAA [MMI-0300] | 159 | 40 | 74 | 28 | 88 | 243 | 84 | 89 | 95 | 90 | 10 | 77 |  | 
2 | KAFAKLAARLYRKALARQLGVAA [MMI-0400] | 222 | 0 | 74 | 19 | 92 | 216 | 36 | 86 | 99 | 91 | 8 | 67 | 95 | 96
3 | YARAAARQARAKALNRQLGVA (Mammalian) [MMI-0200] | 220 | 82 | 72 | 75 |  | 90 | 141 |  | 86 | 125 | 58 |  | 97 | 110
4 | HRRIKAWLKKIKALARQLGVAA (Mammalian) [MMI-0500] | 189 | 2 |  | 3 | 87 | 76 | 73 | 6 | 150 | 29 | −3 | 12 | 64 | 94
